The series concerns the molecule itself. As to the kind of experiment: SEC; HiPrep 16/60 Sephacryl S-300 High-Resolution column; eluted in 20 mM Tris-HCl, 2 M NaCl, 10 mM MgCl2, pH 7.5, 0.5 mL/min, room temperature; standard proteins 12.5 to 678 kDa; oligomer size from 667 kDa against a 55 kDa monomer (SDS-PAGE). Background: SEC sorts molecules by how far they enter the pores of the column.

B1: recombinant GlnA-2 protein (HFX_1688) from Haloferax mediterranei (enzyme, UniProt I3R584 1-446, looked up)
chain: MSDTSTVKSQCEDQNIDLIRLLYVTPSGVIQANTVDVSEVDAAVESGVTLSEVIQVYDAFACRNRNSRFDAVGEVHLCPDPETFRPLPYADRAGAMLCNIRTLDGEPWDVDSRSSLQSVERDLRAKGLSPQVAFESEFSLFSRDGDGKINRGDEAGAYRTESIRGTHDAILHIVDALKAQGIDVKKYHPEFSPGKHEIVTGHHTGLEAADEHLLLRETVKSVAEQDGYQATFLPKPFDDGTNGCHINVSLWNGENQFFDPNHGDISETARQFIAGVLDHAPAVLALTAPTVNSYSRLQPRHGAAGYICWGWLNREALIRVPAPAQGREADSTRIEFRGADNTANPYLGLIGLLAAGNDGIERELEPPEPVSVDPCDLTDAQRTAKGIKRLPQTLGEALDALETNEVLREALGPDLFDAYVEVKRNHWKLFTESAGAWQRERLRNLY
notes: GlnA-2 of Haloferax mediterranei R4 (ATCC 33500T), locus HFX_1688, annotated as glutamine synthetase; monomer 55 kDa by SDS-PAGE; also called glutamate–putrescine ligase; HFX_01688; source: heterologous expression in E. coli, purified (gel filtration); copies: 12
The stoichiometry N is the number of molecules, sites or subunits per partner or assembly. In the case of B1, the “stoichiometry N” value was found to be 12.

The values above are taken from paper PMC8394153, “Novel Glutamate–Putrescine Ligase Activity in Haloferax mediterranei: A New Function for glnA-2 Gene” (Biomolecules, 2021).
